Experimental data published in US9664676B2, “RNA sequences that induce fluorescence of small molecule fluorophores” (Cornell University, priority 2013, dated 2017).

How the values were obtained:
[1] = taken from Song et al.; cited from earlier work
(CGG)60-Spinach2 foci = assay: Effects of drugs on CGG RNA foci in COS-7 cells expressing (CGG)60-Spinach2; type: cell-based
Method: Transfection of COS-7 Cells and Live Cell Imaging: COS-7 cells (ATCC-CRL-1651) were cultured and passaged in DMEM supplemented with 50 units of penicillin and 50 μg of streptomycin per milliliter. For imaging experiments, cells were grown on cells cultured on 24-well glass-bottom dishes and transfected with 0.6 μg of pCDNA-60CGG-Spinach or pCDNA-60CGG-Spinach2 using FuGeneHD (Roche) per the manufacturer's instructions in DMEM medium lacking penicillin and streptomycin. Cells were imaged in CO2-independent medium (Invitrogen) supplemented with L-glutamine. At 30 min-1 h before imaging, medium was supplemented with 25 mM HEPES, 5 mM MgSO4, 1 μg/ml Hoechst 33342 (when appropriate) and 20 μM DFHBI or vehicle. Live fluorescence images were acquired in a temperature-controlled chamber at 35-37° C. with a CoolSnap HQ2 CCD camera through a 60× oil objective (Plan Apo 1.4 numerical aperture (NA)) mounted on a Nikon TE2000 epifluorescence microscope and analyzed with the NIS-Elements software. Spinach was imaged with a filter cube typically used for fluorescein or EGFP, with a sputter-coated excitation filter 470/40 nm, dichroic mirror 495 nm (long-pass), and emission filter 525/50 (Chroma Technology). DsRed-Max and mCherry were imaged using a filter cube typically used for Texas Red, with a sputter coated excitation filter 560/40 nm and emission filter 630/75 nm (Chroma Technology). Background intensity was subtracted from all pixel intensity measurements. Image analyses were completed with NIS-Elements AR 3.2 (Nikon). Drug treatments were carried out as specified. Tautomycin was used at a final concentration of 5 μM in all cases. 1a was used at a final concentration 20 μM in all cases. DMSO was added to a final concentration of 0.1% for vehicle treatments.

[2] = In vitro fluorescence (brightness) of Spinach RNAs, mutants and flanked/fused constructs with DFHBI; type: biochemical; details: for Percent Brightness (at 42° C.): percent of signal remaining at 42 °C for a given mutant; for Relative Brightness (at 25° C.): relative to Spinach
Text: Preparation and Analysis of Spinach and Spinach Mutants: RNAs were created by using the appropriate single-stranded DNA templates (Integrated DNA Technologies) and PCR amplification using primers that included a 5′ T7 promoter sequence to generate double-stranded DNA templates. PCR products were then purified with PCR purification columns (Qiagen) and used as templates for in vitro T7 transcription reactions (Epicentre) as described previously (Paige et al., “RNA mimics of green fluorescent protein,” Science 333: 642-646 (2011), which is hereby incorporated by reference in its entirety). RNA was purified using ammonium acetate precipitation, and quantified using both absorbance values and the Riboquant Assay kit (BD Biosciences). Photophysical characterization of Spinach2 was carried out as previously described (Paige et al., “RNA mimics of green fluorescent protein,” Science 333: 642-646 (2011), which is hereby incorporated by reference in its entirety).
Preparation and In Vitro Analysis of Flanked Spinach and Spinach2 Constructs: Spinach and Spinach2 constructs flanked on either side by 50 base pairs were generated by PCR. For Spinach, the following primers were used:
The 50-base-pair sequences were taken from the human β-actin 3′ untranslated region. Both forward primers encode the T7 RNA polymerase promoter for in vitro transcription. 5S-Spinach and 5S-Spinach2 were amplified by PCR from pAV-5S-Spinach and pAV-5S-Spinach2, respectively, using the following primers: […]
PCR products were used as templates for in vitro transcription by Ampliscribe T7 RNA polymerase as previously described (Paige et al., “RNA mimics of green fluorescent protein,” Science 333: 642-646 (2011), which is hereby incorporated by reference in its entirety). Fluorescence measurements were recorded for 0.1 μM RNA in the presence of 10 μM DFHBI in buffer composed of 20 mM HEPES pH 7.4, 100 mM KCl and […] as described above.
Next, systematic mutagenesis was carried out to identify thermostable Spinach mutants with improved folding. Because elevated G+C content can lead to stable misfolded structures (Kiliszek et al., “Crystal Structures of CGG RNA Repeats with Implications for Fragile X-Associated Tremor Attaxia Syndrome,” Nuc. Acids Res. 39:7308-7315 (2011); Sobczak et al., “RNA Structure of Trinucleotide Repeats Associated with Human Neurological Diseases,” Nuc. Acids Res. 31:5469-5482 (2003), each of which is hereby incorporated by reference in its entirety), it was reasoned that decreasing the overall G+C content could promote proper folding. Scanning mutagenesis was carried out, mutating every […] and cytosine to adenosine or uracil, respectively. In regions where G and C residues were predicted to form a base pair, both residues were mutated to A and U, to maintain the complementarity. Each of these 35 mutants was synthesized in vitro, and the fraction folded was measured at 25° C. and 42° C. Fluorescence signals that were equal to or greater than Spinach at 25° C. indicated equal or greater percent folded. A higher percentage signal at 42° C. indicated improved thermostability relative to Spinach.

[3] = Thermostability measurements of Spinach RNAs with DFHBI; type: physicochemical; details: fluorescence of RNA-DFHBI complex in vitro, 20-60 °C; ±s.e.m.
Method: Thermostability Measurements: Spinach or Spinach2 (1 μM) was incubated in 20 mM HEPES pH 7.4, 100 mM KCl, 1 mM MgCl2 and 10 μM DFHBI. Fluorescence values were recorded in 1° C. increments from 20° C. to 60° C., with a 5-min incubation at each temperature to allow for equilibration. Fluorescence measurements were performed using a PerkinElmer LS-55 fluorescence spectrometer using the following instrument parameters: excitation wavelength, 460 nm; emission wavelength, 501 nm; slit widths, 10 nm. Curves were fitted using the Boltzmann sigmoidal equation in GraphPad Prism 5 software. Values presented are mean and s.e.m. from three independent measurements.

[4] = Folding assay (fraction of RNA folded, DFHBI); type: physicochemical
Method: Folding Assay: The folding assay involves measurement of fluorescence under two conditions, one in which RNA is in excess relative to DFHBI, and one in which the DFHBI is in excess relative to RNA. As Spinach and DFHBI form a 1:1 stoichiometric complex, the maximum amount of complex that can be formed is determined by the limiting component. In the first condition, the fluorescence was determined by incubation of 0.1 μM DFHBI and 100-fold excess (10 μM) Spinach. This value was used to define the fluorescence of 0.1 μM Spinach-DFHBI complex. It was assumed that even if nearly all Spinach is misfolded or unfolded, there will be enough properly folded Spinach to stoichiometrically bind 0.1 μM DFHBI. This was confirmed by measuring fluorescence after doubling the RNA to 20 μM, which caused no increase in fluorescence. In the second condition, the fluorescence obtained using 10 μM DFHBI and 0.1 μM Spinach was measured. In theory, up to 0.1 μM Spinach-DFHBI can form if all the Spinach is folded. However, if a portion of Spinach is unfolded, the fluorescence will be proportionately less than the fluorescence of 0.1 μM Spinach-DFHBI. Thus, this approach can reveal the fraction of Spinach that is folded under diverse conditions.
Fluorescence was measured for each RNA under the following conditions: (i) 0.1 μM RNA and 10 μM DFHBI, and (ii) 0.1 μM DFHBI and 10 μM RNA. For each condition, the signal from DFHBI without RNA was subtracted from each signal. Fluorescence was measured in 20 mM HEPES pH 7.4, 100 mM KCl and 1 mM MgCl2 at the designated temperature. Fluorescence measurements were performed using a PerkinElmer LS-55 fluorescence spectrometer using the following instrument parameters: excitation wavelength, 460 nm; emission wavelength, 501 nm; slit widths, 10 nm. Signal from the first condition (limiting RNA) was divided by the signal from the second condition (limiting dye) to determine the fraction folded.

CC1=N/C(=C\c2cc(F)c(O)c(F)c2)C(=O)N1CC(F)(F)F [DFHBI-1T]
Abs max [1]: 423 nm
Brightness [1]: 0.12
Em max [1]: 495 nm
Ex max [1]: 426 nm
Ext. coeff. [1]: 35,400 M^−1cm^−1
Quantum yield [1]: 0.00098

C=C1[C@@H](O)[C@@H]2O[C@]3(CC[C@H](/C=C/[C@@H](C)[C@@H]4CC(C)=C[C@@]5(O[C@H](C[C@@](C)(O)C(=O)O)CC[C@H]5O)O4)O3)CC[C@H]2O[C@@H]1[C@@H](O)C[C@H](C)[C@H]1O[C@@]2(CCCCO2)CC[C@H]1C [okadaic acid]
disruption of existing foci ((CGG)60-Spinach2 foci; 1a: imaging every 5 min for 2 h, okadaic acid: over 4 h): No disruption of foci

CO[C@H]([C@H](O)CC(=O)[C@@H](C)[C@@H](O)CC[C@@H](C)[C@@H]1O[C@]2(CC[C@@H](C)[C@H](CC[C@H](C)C(C)=O)O2)CC[C@@H]1C)[C@H](OC(=O)C[C@@H](O)C1=C(C)C(=O)OC1=O)C(C)C [tautomycin]
time to disaggregation of existing foci ((CGG)60-Spinach2 foci; 5 μM): 1 h
effect on formation of (CGG)60-Spinach2 foci ((CGG)60-Spinach2 foci; 20 μM 1a or 5 μM tautomycin): prevented formation of (CGG)60-Spinach2 foci
nuclei containing foci ((CGG)60-Spinach2 foci; 24 h treatment, 20 μM 1a or 5 μM tautomycin, ±s.e.m.): 12±4.2%

B1: Spinach1.1: Spinach mutant with perfect complementarity in stem 1, SEQ ID NO: 30 (nucleic acid)
chain: GACGCGACCGAATGAAATGGTGAAGGACGGGTCCAGGTGTGGCTGCTTCGGCAGTGCAGCTTGTTGAGTAGAGTGTGAGCTCCGTAACTGGTCGCGTC
modifications: listed as DNA, chemistry not given here
brightness compared to Spinach ([2]; 1 μM RNA, 10 μM DFHBI, 25 °C): as bright as Spinach
melting temperature (Tm) [3]: 35±0.5 °C

B2: Spinach: RNA aptamer binding DFHBI, SEQ ID NO: 1 (nucleic acid)
chain: GACGCAACUGAAUGAAAUGGUGAAGGACGGGUCCAGGUGUGGCUGCUUCGGCAGUGCAGCUUGUUGAGUAGAGUGUGAGCUCCGUAACUAGUCGCGUC
modifications: listed as RNA, chemistry not given here
percentage folded ([4]; 25 °C, in the presence of the tRNA (tRNA^Lys3 scaffold)): 50±3.9%
percentage folded ([4]; 25 °C, no tRNA scaffold): 32±4.2%
percentage folded ([4]; 37 °C, in the presence of the tRNA (tRNA^Lys3 scaffold)): 24±2.4%
percentage folded ([4]; 37 °C, no tRNA scaffold): 13±2.8%
fluorescence when fused to the CGG repeat-containing RNA [2]: essentially nonfluorescent
brightness of flanked RNA relative to the same aptamer alone ([2]; flanked by 50 nt of RNA on both 5′ and 3′ ends, 0.1 μM RNA): 20%
Percent Brightness (at 42° C.) [2]: 19%
Relative Brightness (at 25° C.) ([2]; 25 °C): 1.0
melting temperature (Tm) [3]: 34±0.6 °C

B3: Spinach1.2: Spinach mutant with perfect complementarity in stem 1 and stem loop 3, SEQ ID NO: 31 (nucleic acid)
chain: GACGCGACCGAATGAAATGGTGAAGGACGGGTCCAGCCGGCTGCTTCGGCAGCCGGCTTGTTGAGTAGAGTGTGAGCTCCGTAACTGGTCGCGTC
modifications: listed as DNA, chemistry not given here
percentage folded ([4]; 25 °C, no tRNA scaffold): 27±2.1%
percentage folded ([4]; 37 °C, no tRNA scaffold): 16±2.3%
dimmer than Spinach ([2]; 1 μM RNA, 10 μM DFHBI, 25 °C): 16%
Percent Brightness (at 42° C.) [2]: 41%
Relative Brightness (at 25° C.) ([2]; 25 °C): 0.8
melting temperature (Tm) [3]: 38±0.3 °C
